Measurements from the nanobody polyreactivity screen of Harvey et al. (2022).

Experiment: yeast display, Sf9 membrane polyspecificity reagent, FACS + sequencing; frameworks hold sequencing errors
Summary of the method: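 Galactose-induced (36–48 hours) yeast carrying a synthetic nanobody display library were exposed to 10% biotinylated, detergent-solubilized Sf9 membrane reagent at 4 °C for 1 hour. FACS followed streptavidin microbead enrichment, using low and high (top ~1%) gates for expression (anti-HA) and reagent binding (streptavidin). Colony PCR, MiSeq 2 × 250 sequencing and CDR-length filtering followed. Labels for polyreactivity reflect the gate of origin.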

Which “polyreactivity (PSR sort gate)” value does the source give for “QVQLVESGGGLVQAGGSLRLSCAASGRTFSSYAMGWYRQEPGKERELVARINSDGGRTYYADSVKGRFTISRDNAKNTVYLQMNSLKPEDTAVYYCAKRVVRGKVDYWGQGTQVTVSS” here?
Its value is “low polyreactivity”.

For “QVQLVESGGGLVQAGGSLRLSCAASGSIFVYNDMGWYRQAPGKERELVAGIDWSGDRTYADSVKGRFTISRDNAKYTVYLQMNSLKPEDTAVYYCNAERYPYRLRARKLDYWGQGTQVTVSS”, which “polyreactivity (PSR sort gate)” value is on record?
Its value is “low polyreactivity”.

Which “polyreactivity (PSR sort gate)” value does the source give for “QVQLVESGGGLVQAGGSLRLICAASGYIFKYYAMGWYRQAPGKERELVATINYSGGGTYYADSVKGRFTISRDNAKNTVYLQMNSLKPEDTAVYYCAAREKYISYSYYYWGQGTQVTVSS” here?
The value was “high polyreactivity”.

With “QVQLVESGGGLVKAGGSLRLTCAASGSIFRYYAMGWYRQAPGKERELVAAISGSGGSTYYADSVKGRFTISRDNAKNTVYLQMNSLKPEDTAVYYCARVRGCYDKMYYWGQGTQVTVSS” as the sequence, how does the “polyreactivity (PSR sort gate)” value read?
The value was “high polyreactivity”.

Which “polyreactivity (PSR sort gate)” value does the source give for “QVQLVESGGGLVQAGGSLRLSCAASGSIFKKYAMVWYRQAPGKERELVAAITRGTYYADSVKGRFTISRDNAKNTVYLQMNSLKPEDTAVYFCNREYWGRGYYRVRGEYDYWGQGTQVTVSS” here?
The value was “low polyreactivity”.

Which “polyreactivity (PSR sort gate)” value does the source give for “QVQLQESGGGLVQAGGSPRLSCAASDNIFPDSLMCWYRQAPGKERELVATIGFGATTNYEDSVKGRFTISRDNAKNTVYLQMNSLNPEDTALYYCAAVPLNYEYFCYWGQGTQVTVSS” here?
Its value is “low polyreactivity”.

Which “polyreactivity (PSR sort gate)” value does the source give for “QVQLVESWGGLVQAGGSLRLSCAASGSTFYRYAMGWYRQAPGKERELVAAISRSGGNTFYADSVKGRFTISRDNAKNTVYLQMNSLKQEDTAVYYCAAEAHLACYYRYYGGYGYDYWGQGTQVTVSW” here?
The value was “high polyreactivity”.

With “QVQLVESGGGLVQAGGCLRLSCAASGVIFTRNVMGWYRQAPGKERELVAAISSGGRTYYADSVKGRFTISRDNAKNTVYLQMNSLKQEDTAVYYCNAGNRGVYRYDYWGQGTQVTVSS” as the sequence, how does the “polyreactivity (PSR sort gate)” value read?
Its value is “high polyreactivity”.

For “QVQLVESGGGLVQAGGTLRLSCAASGFIINRYAMGWYRQPPGKERELVAAISWSGGRTYYADSVKGRFTISRDNAKNTVSLQMNSLKPEDTAVYYCAADSYTSLDGRDYWGQGTQVTVSS”, which “polyreactivity (PSR sort gate)” value is on record?
The value was “high polyreactivity”.

For “QVQLVESGGGLVQAGGSLRLSCADSGRTFKFNAMGWYRQAPGKERELVVGITWTGSTTSYADSVKGRFTISRDNAKNTVYLQMNSLKPEDTAVYYCAADKIRFWYHGFYYRGQGTQVTVSS”, which “polyreactivity (PSR sort gate)” value is on record?
The value was “low polyreactivity”.

With “QVQLVESGGGLVQAGGSLRLSCAASGSIFPTNTMGWYRQAPGKERELVASINSDGSTNYADSVKGSFTISRDNAKNTVYLQMNSLKPEDTAVYYWAADTQGSEYEFWGQGTQVTVSS” as the sequence, how does the “polyreactivity (PSR sort gate)” value read?
Its value is “low polyreactivity”.

Which “polyreactivity (PSR sort gate)” value does the source give for “QVQLVESGGGLVQAGGSLRVSCAASGLTLPPYAMGWDRQAPGKERELVAAITSGGSTNYADSVKGRFTISRDKAKNTVYLQLNSLKPEDTAVYYCAAVGRHYYVKFDFWGQGTHVTVSS” here?
The value was “low polyreactivity”.

For “QVQLVESGGGLVQAGGSLRLSCAASGFTFYRYGMGWYRQAPGKERELVAAINNDGTTNYADSVKGRFTISRDNAKNTVYLQMNSLKPEDTAVYYCAADYYRGRYSSRYDYWGQGTQVTVSS”, which “polyreactivity (PSR sort gate)” value is on record?
Its value is “low polyreactivity”.

Which “polyreactivity (PSR sort gate)” value does the source give for “QVQLQESGGGLVQAGVSLRLSGAASGYISTFSSEMGWYRQAPVKERELVASIAPGCTTSYADSVKGRFTISRDNAKNTVYLQMNSLKPEDTAVYYCAVDYTVPASFGYWGQGTQVTVSS” here?
The value was “high polyreactivity”.

Which “polyreactivity (PSR sort gate)” value does the source give for “QVQLVESGGGLVQAGGSLRLSCAASGRTFKYYAMGWYRQAPGKERELVAAITTGGSTHYADSVKGRFTISRDNAKNTVYLQMNSLKPEDTAVYYCAAGPFARYDYWGQGTEVTVSS” here?
Its value is “low polyreactivity”.

For “QDQLVESGGGLVQAGGSLRLICAASGSTFEYNAMGWSRHAPGKERELVASSTNYADSVKGRFTISRDNAKNTVYLQMNSLIPEDTAVYYCAREHGVNRNHDYWGQGTQVTVSS”, which “polyreactivity (PSR sort gate)” value is on record?
The value was “low polyreactivity”.

With “QDQLVESGGGLVQAGGSLRLSCAASGSIFGRNTMGWYRQAPGKERELVAAISSSGGSTRYADSVKGRFTISRDNAKNTVYLQMNSLKPEDTAVYYCNAKRYGGRQASYNLGDYWGQGTEVTVSS” as the sequence, how does the “polyreactivity (PSR sort gate)” value read?
Its value is “high polyreactivity”.

Which “polyreactivity (PSR sort gate)” value does the source give for “QVQLVESGGGLVQAGGSLRLSCAASGRTFYYYAMGWYRQAPGKERELVARIRSTGRTSYADSVKGRFTISRDNAKNTVYLQMNRLKPEDTAVYYCAAKYSSTAWSRRKFDYWGQGTQVTVSS” here?
The value was “high polyreactivity”.

For “QVQLVESGGGLVQAGGSLRLSCAASGSIFRSYAMGWYRQAPGKERELVAAISSSSGSTYYADSVKGRFTISRDNAKNTVYLQMNSLKPEDTAVYYCAARSRIGNNGYEYWGQGTQVTVSS”, which “polyreactivity (PSR sort gate)” value is on record?
Its value is “low polyreactivity”.

Which “polyreactivity (PSR sort gate)” value does the source give for “QVQLVESGGGLVQAGGSLRLSCAASGSTFQTNARGWYRQAPGKERELVAAITWSGTSTYADSVKGRFTISRDNAKNPGYFQMNSLKPDDTAVYYCAAPILSFPSPYVQYDYWGLGTQVTVSS” here?
Its value is “low polyreactivity”.

With “QVQLVESGGGLVQAGGSLRLSCAASGSIFYRYAMGWYRQAPGKERELVAAIRWSGGSTYYADSVKGRFTISRDNAKNTVYLQMNSQKPEDTAVYYCATEVSYGGYWSWYGYWGQGTQVTVSS” as the sequence, how does the “polyreactivity (PSR sort gate)” value read?
Its value is “low polyreactivity”.

Which “polyreactivity (PSR sort gate)” value does the source give for “QVQLVESGGGLVQAGGSLRLSCAASGRIFSRNTMGWYRQATGKEREFVAAISQSGGRTYYADSVKGRFTISRDNAKNNVYLQMNSLKPEDTAVYYCAARSRGYDIRYGYWGQGTQVTVSS” here?
Its value is “high polyreactivity”.

With “QVQLVESGGGLVQAGGSLRLSWAASGLIFSSNAMGWYRQAPGKERDLVAAITRSGGSTYYADSVKGRFTISRDNAKNTVYLQMNSLKPEDTAVYYCAARYSQRGITFYYWGQGTQVTVSS” as the sequence, how does the “polyreactivity (PSR sort gate)” value read?
Its value is “high polyreactivity”.

For “QDQLVESGGGLVQAGGSLRLSCAASGSIFKYNMGWYRQAPGKERELVAAISRGGSTYYADSVKGRFTISRDNAKNTVYLQMTRLKPEDTAVYYCNAATSRRFSGMNYCGQGTQVTVSS”, which “polyreactivity (PSR sort gate)” value is on record?
The value was “high polyreactivity”.

Which “polyreactivity (PSR sort gate)” value does the source give for “QVQLVESGGGLVQAGGSLRLSCAASGITFEGYAMGWYRQAPGKERELVAAITWSGGRTYYADSVKGRFTISRDNAKNTVYLQMNSLKPEDTAVYYCAADVSDWSNQYFDSYLRMDYWGQGTQVTVSS” here?
Its value is “low polyreactivity”.

With “QVQLVESGGGLVQAGGSLRLSCAASGRTFIYNTMGGYRQAPGKERELVAAITGNGGSTYYADSVKGRFTISRDYEKNTVYFQMNSLKPEDTAVYYCNAVGFDQPRYYYWGQGTQVTVSS” as the sequence, how does the “polyreactivity (PSR sort gate)” value read?
Its value is “high polyreactivity”.

For “QVQLVESGGGLVQAGGSLRLSCAASGRIFVGYAMGWYRQAPGKERELVAAINRSGSSTYYADSVKGRFTISRDNAKNTVYLQMNSLKPEDSAVYYCNARAPSYYRYRASSAYDYWGQGTQVTVSS”, which “polyreactivity (PSR sort gate)” value is on record?
The value was “high polyreactivity”.

With “QVQLVESGGGLVQAGGSLRLSCAASGSTINRNAMGWYRQAPGKERELVAGISYGGGSTYADSVKGRFTISRDNAKNTVYLQMNSLKPEDTAVYYCTADFRHGHRHDMNYWGQGTQVTVSS” as the sequence, how does the “polyreactivity (PSR sort gate)” value read?
Its value is “low polyreactivity”.

For “QVQLVESGGGLVQAGGSLRLSCAASGRTFGYNVMGWYRQAPGKEMELVAGITSSGSTNYADSVKGRFTISRDNAKNTVYLQMNSLKPEDTAVYYCNADRLITWQLLYISSYRYDYWGQGTQVTVSS”, which “polyreactivity (PSR sort gate)” value is on record?
Its value is “high polyreactivity”.

Which “polyreactivity (PSR sort gate)” value does the source give for “QVQLVESGGGLVQAGGSLRLSCAASGRTFGPYAMGWSRQAPGKERELVAAITWSGGSTYYADSVKGRFTISRDNAKNTVYLQMNSLKPEDTAVYYCAAKFSIWTLKKYYYWGQGTQVTVSS” here?
Its value is “high polyreactivity”.

With “QVQLVESGGGLVQAGGSLRLSCAASGGIFTGYAMGWYRQAPGKERELVAAISSGGTTYYADSVKGRFTISRDNAKITVHLQMNSLKPEDTAVYYCAAGFYLRAVWMDYWGQGTQVTVSS” as the sequence, how does the “polyreactivity (PSR sort gate)” value read?
The value was “high polyreactivity”.

For “KVQLVESGGGLVQAGGSLRLSCAASGNTFYVYTMGWYRQAPGKERDLVAAISSTGDRTYYADSVKGRFTISRDNAKNTVYLQMNSLKPEDTSVYYCADVRYITKEFYWGLGTQVTVSS”, which “polyreactivity (PSR sort gate)” value is on record?
Its value is “high polyreactivity”.

With “QVQLVESGGGLVQAGGSLRLSCAASGSTFIFNTMGWYRQAPGKERELVASITGDGRTNYADSVKGRFTISRDNAKNTVYLQMNSLKPEDTAVYYCAADGYDQYPLWAPPGDYWGQGTQVTVSS” as the sequence, how does the “polyreactivity (PSR sort gate)” value read?
The value was “low polyreactivity”.

Which “polyreactivity (PSR sort gate)” value does the source give for “QVQLVESGGGIVQAGGRLRLSCAASGRIFYYNAMGWYRQAPGQERELVAVISRNGGRTYYADSVKGRFTISRDNAKNTVSFQMNSLKPEDTAVYYCAARSAGDRYDYWGQGTQVTVSS” here?
The value was “high polyreactivity”.

With “QVQLVESGGALVQAGGSLRLSCAASGSTFYYYAMGWYRQAPGKEREFVAAISGGDGTTSYADSVKGRFTISRDNAKKTVYLQMNSLKPEDTAFYYCASPYTSYLYGYDYWGQGTQVTVSS” as the sequence, how does the “polyreactivity (PSR sort gate)” value read?
Its value is “low polyreactivity”.

Which “polyreactivity (PSR sort gate)” value does the source give for “QVQLVESGGGLVQAGGSLRLSCAASGSTFNTYVMGWYRQAPGKERELVAAISSSGGTTYYADSVKGRFTISRDNAKNTVYLQMNSLKPEDTAVYYCNAVPKYGSRLYRYGYWGQGTQVTVSS” here?
Its value is “high polyreactivity”.

Which “polyreactivity (PSR sort gate)” value does the source give for “QVQHVESRGGLVQAGGSLRLSCAASGRTFFNNVMGWYRQAPGKERELVAAISKSGTRTYYADSVKGRFTISRDNAKNTVYLQMNSLKPEDTAVYYCATGQYLRTSRYYYWGQGTQVTVSS” here?
The value was “high polyreactivity”.

For “QVQLVESGGGLVQAGGSLRLSCAASGRTFGNNAMGWYRQAPGKEREFVAAITSRGGSTYYADSVKGRFTISRDNAKNTVYLQINSLKPEDTAVYYCNREYQLPSQRTEHYYWGQGTQVTVSS”, which “polyreactivity (PSR sort gate)” value is on record?
The value was “low polyreactivity”.

For “QVQLVESGGGLVQAGGSLRLSSAASGRIFSSYAMGWYRQAPGKERELVAAITSGGSTYYADSVKGRFTISRDNAKNTVYLQMNSLKPEDTAVYYCAAVYVQPPATAQHYYYWGQGTQVTVSS”, which “polyreactivity (PSR sort gate)” value is on record?
Its value is “high polyreactivity”.

For “QVQLVESGGGLVQAGGSLRLSCAASGRIFGAYAMGWYRQAPGKERELVAAITSRGGNTYYADSVKGRFTISRDNAKNTVFLQMNSLKPEDTAVYYCAARHDTRRQYYVGQSAFDYWGQGTQVTVSS”, which “polyreactivity (PSR sort gate)” value is on record?
Its value is “low polyreactivity”.

Which “polyreactivity (PSR sort gate)” value does the source give for “QVKVVESGGGLVQAGGSLRLSCAASGSIYVGYAMGWYRQAPGKERELVAAISWSGDSTYYADSVKGRFTISRDNAKNTVYLQMNSLKPEDTAVYYCAVDYAEIGPRREFEYDYWGQGTQVTVSS” here?
Its value is “low polyreactivity”.
